Substrate in the data set: N=C(N)NCCC[C@H](N)C(=O)O
The data set can be described thus: Arginase-catalysed hydrolysis of L-Arg to L-Orn, initial rates in batch, with and without inhibitors. The class given is biochemical, calf. To be noted: other: nonlinear regression of initial rate data with L-Arg; 25.0 °C.

Procedure: In further experiments, the materials used were: Calf liver arginase (activity 110 U/mg) which was obtained from Boehringer Mannheim (Mannheim, F.R.G.). Amino acids were from Rexim (Ham, France). MnSO4, MnO2, and ascorbic acid were from E. Merck (Darmstadt, F.R.G.).
Batch conditions used were: Starting pH value, except for the activity-pH curve, was either 11.5, the natural value for L-Arg in water, or 9.5, adjusted from pH 11.5 with conc. HCl. The temperature was 25° C. unless otherwise noted. Typical concentrations of L-Arg were 0.75M. Unless otherwise mentioned, [Mn2^+ ]=5-10^-4 M. Reaction progress was followed by HPLC (amino column, mobile phase: phosphate buffer (pH 6.4)/acetonitrile).
Kinetic data was obtained as follows: Initial rate data were analyzed by a non-linear regression method (Marquardt routine) with the program OPTI (U. Giesecke, KFA J ulich).
A linear slope of 1/[S] vs. [I] plot distinguishes a purely competitive inhibition mechanism from a partially competitive one. Simultaneously, the apparent and the intrinsic KM -value are proportional to [I] according to equation (5) from which the inhibition constant KI can be calculated
Since the runs have been conducted at [LArg]=50 mM=2·Km,intr,Vo =Vmax ·2·KM,intr /(KM,intr (3+[I]/KI))=Vmax ·2/(3+[I]/KI). At [I]=KI, Vo =Vmax 2/(3+1)=Vmax /2. So, KI can be calcuated with sufficient accuracy from a Vo vs. [I] plot such as FIG. 4.

B1: Calf liver arginase (Bos taurus) (protein)
chain: MSSKPQSIGVIGAPFSKGQPRGGVEEGPTVLRKAGLLEKLKELECDVKDYGDLSFADNLDDSPFQIVKNPRCVGKASEKLADVVAEVKKTGRISLVLGGDHSLAIGSISGHARVHPDLCVIWVDAHTDINTPLTTKTGNLHGQPVSFLLKELKEKMPEVPGFYWVAPCISAKDIVYIGLRDVDPGEHYILKTLGIKYFSMTEVDKLGIGKVMEETFSYLLGRKKRPIHLSFDVDGLDPSFTPATGTPVQGGLTYREGLYITEEIYKTGLLSGLDIMEVNPSLGKTPEEVTRTVNTTVAITMACFGVAREGNHKPIDYLSPPK
notes: purchased Boehringer Mannheim (Mannheim, F.R.G.)
In the case of B1, the Km (commonly the substrate concentration at which the rate is half of its maximum) came to 25.5 mM and the kcat (as a rule, the maximal rate divided by the concentration of active sites) turned out to be 1200 s⁻¹.

The record behind these values is patent US5591613A, “Method for the preparation of D-arginine and L-ornithine” (Degussa Aktiengesellschaft, priority 1990, dated 1997).
